Paper PMC11117822

Target: poly-L-arginine hydrochloride
Experiment: optical reflectometry; PARG layer adsorbed on silica in a stagnation point flow cell; HSA 5 mg L^-1 flowed over it at Q = 8.33 x 10^-3 cm^3 s^-1; 150 mM NaCl, pH 4.0; 298 K

plateau coverage: 0.1 mg m^−2
Substance: human serum albumin (from UniProt P02768 25-609)
